Where a chain is given by its changes, count along the chain named.

The values that follow come from patent US20080081047A1 (published 2008).

Test [1] addresses T1, SARS-HCoV spike protein (SARS-coronavirus (Tor-3 strain), UniProt P59594 14-1255). Description: ELISA, virus heated 100 C 10 min, coated at 32 ng/well. (ELISA stands for enzyme-linked immunosorbent assay.)
Test [2] concerns the target T1, SARS-HCoV spike protein. The test can be described thus: ELISA, OD on native virus against OD on heat-denatured virus.
In test [3] the target is T1, SARS-HCoV spike protein. Description: ELISA, native gradient purified virus coated at 32 ng/well.

B1: F26G18 (antibody, V domains shown)
VH: LVQLEESGTVLPRPGASVKMSCKASGYTFTSYWMHWVKQRPGQGLEWIGAIYPGNSDTNYNQKFKGRATLTAVTSTSTASMELSSLTNEDSAVYYCTRDGYGSLYYYAMDFWGQGTSVTVSS
VL: ELVMTQSPSSLSASLGDRVTISCRASQDISNYLNWYQQKPDGTVKLLIYYTSRLHAGVPSRFSGSGSGTDYSLTISNLEQEDIATYFCQQGYTLPYTFGGGTKLEIKR
Turning to B1, the “ELISA OD 405 nm, Denatured Lysate” value in test [1] was 0.501 OD 405 nm. In test [2], the “O.D. Reduction, Fold” value stood at 3.6 fold and the “O.D. Reduction, Percent” value came to 72%. Also, in test [3], the “ELISA OD 405 nm, Viral Lysate (native)” value was determined as 1.81 OD 405 nm.

B2: F26G19 (antibody, V domains shown)
VH: EVQLEESGTVLARPGASVKMSCKASGYTFTTYRMHWIKQRPGQGLEWIGAIYPGNSDTTYNQKFKDKAKLTAVTSTSSAYMELSSLTNEDSAVYFCTREGIPQLLRTLDYWGQGTSVTVSS
VL: DILMTQSPSSLSASLGERVSLTCRASQEISGYLSWLQEKPDGTIKRLIYAASTLDSGVPKRFSGSRSGSDYSLTISSLESEDFADYYCLQYVSYPWTFGGGTKLEIKR
Turning to B2, the “ELISA OD 405 nm, Denatured Lysate” value in test [1] turned out to be 0.253 OD 405 nm. In test [2], the “O.D. Reduction, Fold” value stood at 6 fold and the “O.D. Reduction, Percent” value was found to be 83%. Also, in test [3], the “ELISA OD 405 nm, Viral Lysate (native)” value amounted to 1.5 OD 405 nm.

B3: F26G6 (antibody, V domains shown)
VH: QVQLQQPGAELVKPGASVKVSCKASGYTFTNYWIHWVKQRPGQGLEWIGEINPGNGRTNYNGNFMNKATLTVDKSSNTAYMQLSSLTSEDSAVYHCARLDYWGQGTTLTVSS
VL: ELVMTQSPASLSVATGKKVTIRCISSTDIDDDMNWYQQKAGKPPKLLISEGNIFSPGVPSRFSSSGNGTDFVFTVENTLSEDVADNYCLQSDNMPFTFGSGTKLGIKR
Take B3: the “ELISA OD 405 nm, Denatured Lysate” value in test [1] is 0.6 OD 405 nm. In test [2], the “O.D. Reduction, Fold” value was 2.7 fold and the “O.D. Reduction, Percent” value is 62%. Besides, in test [3], the “ELISA OD 405 nm, Viral Lysate (native)” value is 1.6 OD 405 nm.

B4: F26G8 (antibody, V domains shown)
VH: VQLLESGAELVKPGASVKVSCKASGYTFTSYWIHWVKQRPGQGLEWIGEINPSNGRTNYNGNFESKATLTVDKSSNTAYMHLSSLTYEDSAVYHCTRLDYWGQGTTLTVSS
VL: B3 VL with A14I, S26N, M33L, Y36S, Q38L, K42E, V75I, D85N, L89F, G105E
As to B4, the “ELISA OD 405 nm, Denatured Lysate” value in test [1] amounted to 0.497 OD 405 nm. In test [2], the “O.D. Reduction, Fold” value amounted to 2.8 fold and the “O.D. Reduction, Percent” value amounted to 29%. The “ELISA OD 405 nm, Viral Lysate (native)” value in test [3] worked out at 1.41 OD 405 nm.
